According to US10047131B2, “Peptides and combination of peptides for use in immunotherapy against ovarian cancer and other cancers” (immatics biotechnologies GmbH, priority 2015, dated 2018):

The substances below were run against HLA-A*02:01 (Homo sapiens, UniProt P04439, D140Y/D185E/D98H/E176V/E277Q/G131W/G231S/I119V/I121R/I166T/I218V/L300P/L318F/N151K/N90K/P208A/P217A/Q86G/Q94H/R138H/R169H/T345S) (assay: MHC binding assay (UV-ligand exchange, ELISA of exchange yield)). Conditions: binding to HLA-A*02:01, UV-ligand exchange.
In short: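 Peptide–MHC complexes made by UV-ligand exchange, where a UV-cleavable peptide is replaced by the test peptide. Exchange yield measured by ELISA: complexes diluted 100-fold on streptavidin-coated plates, stabilized complexes detected with HRP anti-β2m, TMB read at 450 nm.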

| Peptide exchange (MHC class I binding score, peptide exchange yield) | Substance |
| --- | --- |
| “++++” (≥75% = ++++) | 196 (YLYSVEIKL; listed as Homo sapiens) [compound 196] |
| “++” (≥20% = ++) | 197 (ALGPEGGRV; listed as Homo sapiens) [compound 197] |
| “+++” (≥50 = +++) | 198 (KTINKVPTV; listed as Homo sapiens) [compound 198] |
| “+++” (≥50 = +++) | 199 (ALQDVPLSSV; listed as Homo sapiens) [compound 199] |
| “+++” (≥50 = +++) | 200 (LLFGSVQEV; listed as Homo sapiens) [compound 200] |
| “+++” (≥50 = +++) | 201 (RLVDYLEGI; listed as Homo sapiens) [compound 201] |
| “+++” (≥50 = +++) | 202 (ALLDQQGSRWTL; listed as Homo sapiens) [compound 202] |
| “++” (≥20% = ++) | 204 (KIAENVEEV; listed as Homo sapiens) [compound 204] |
| “+++” (≥50 = +++) | 205 (SLYPGTETMGL; listed as Homo sapiens) [compound 205] |
| “+++” (≥50 = +++) | 206 (VLQEGKLQKLAQL; listed as Homo sapiens) [compound 206] |
| “++” (≥20% = ++) | 207 (GLTSTNAEV; listed as Homo sapiens) [compound 207] |
| “+++” (≥50 = +++) | 208 (KISPVTFSV; listed as Homo sapiens) [compound 208] |
| “++” (≥20% = ++) | 209 (KLIESKHEV; listed as Homo sapiens) [compound 209] |
| “++” (≥20% = ++) | 210 (LLLNAVLTV; listed as Homo sapiens) [compound 210] |
| “++” (≥20% = ++) | 211 (LLWPGAALL; listed as Homo sapiens) [compound 211] |
| “++” (≥20% = ++) | 212 (ALWDQDNLSV; listed as Homo sapiens) [compound 212] |
| “+++” (≥50 = +++) | 214 (FLLDLDPLLL; listed as Homo sapiens) [compound 214] |
| “+++” (≥50 = +++) | 215 (QLINHLHAV; listed as Homo sapiens) [compound 215] |
| “+++” (≥50 = +++) | 216 (NLWEDPYYL; listed as Homo sapiens) [compound 216] |
| “++” (≥20% = ++) | 217 (ALIHPVSTV; listed as Homo sapiens) [compound 217] |
| “++” (≥20% = ++) | 218 (SALEELVNV; listed as Homo sapiens) [compound 218] |
| “+++” (≥50 = +++) | 219 (KLSDIGITV; listed as Homo sapiens) [compound 219] |
| “++” (≥20% = ++) | 220 (LLQKFVPEI; listed as Homo sapiens) [compound 220] |
| “++” (≥20% = ++) | 221 (ALYEEGLLL; listed as Homo sapiens) [compound 221] |
| “++” (≥20% = ++) | 222 (NLIENVQRL; listed as Homo sapiens) [compound 222] |
| “+++” (≥50 = +++) | 223 (ALLENIALYL; listed as Homo sapiens) [compound 223] |
| “+++” (≥50 = +++) | 224 (TLIDAQWVL; listed as Homo sapiens) [compound 224] |
| “+++” (≥50 = +++) | 225 (SLLKVLPAL; listed as Homo sapiens) [compound 225] |
